{
  "source": "patent US20160075744",
  "about": "“DNA-BINDING PROTEIN USING PPR MOTIF, AND USE THEREOF” (KYUSHU UNIVERSITY, NATATIONAL UNIVERSITY CORPORATION, published 2016)",
  "binders": {"B1": {"name": "pTac2 target (8x in reporter) (dsDNA)", "DNA 1": "AACTTTCGTCACTCA", "DNA 2": "TGAGTGACGAAAGTT"}, "B2": {"name": "GUN1 target (8x in reporter) (dsDNA)", "DNA 1": "AATTTGTCGAT", "DNA 2": "ATCGACAAATT"}, "B3": {"name": "pTac2 target (4x in reporter) (dsDNA)", "DNA 1": "AACTTTCGTCACTCA", "DNA 2": "TGAGTGACGAAAGTT"}, "B4": {"name": "GUN1 target (4x in reporter) (dsDNA)", "DNA 1": "AATTTGTCGAT", "DNA 2": "ATCGACAAATT"}},
  "key": {"[1]": {"biological_target": "T1, pTac2-VP64 (Arabidopsis thaliana, UniProt Q9S7Q2 SEQ:106-632)", "T1 chain": "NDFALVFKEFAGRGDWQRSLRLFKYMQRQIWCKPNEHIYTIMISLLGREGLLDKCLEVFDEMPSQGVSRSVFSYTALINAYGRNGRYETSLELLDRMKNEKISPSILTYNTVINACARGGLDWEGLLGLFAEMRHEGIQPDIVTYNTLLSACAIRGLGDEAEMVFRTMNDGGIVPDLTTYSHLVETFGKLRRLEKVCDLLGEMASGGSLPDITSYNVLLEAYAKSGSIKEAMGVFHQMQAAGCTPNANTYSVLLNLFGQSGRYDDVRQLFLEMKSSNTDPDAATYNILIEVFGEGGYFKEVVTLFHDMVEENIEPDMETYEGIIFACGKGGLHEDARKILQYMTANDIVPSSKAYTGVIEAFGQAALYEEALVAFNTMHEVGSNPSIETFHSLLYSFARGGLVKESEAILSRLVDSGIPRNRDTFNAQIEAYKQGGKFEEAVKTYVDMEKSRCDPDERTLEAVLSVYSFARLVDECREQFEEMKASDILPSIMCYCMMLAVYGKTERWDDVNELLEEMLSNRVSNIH", "test": "cell_activity; HEK293T dual luciferase, 8x target, vs pminCMV-luc2", "description": "(§1) The PPR-VP64 expression vector prepared in the section 1, the firefly luciferase expression vector prepared in the section 2, and the pRL-CMV vector (expression vector for Renilla luciferase, Promega) as a reference were introduced by using Lipofectamine LTX (Life Technologies). The DMEM medium (25 μl) was added to each well of a 96-well plate, and a mixture containing the PPR-VP64 expression vector (400 ng), firefly luciferase expression vector (100 ng), and pRL-CMV vector (20 ng) was further added. Then, a mixture of the DMEM medium (25 μl) and Lipofectamine LTX (0.7 μl) was added to each well, the plate was left standing at room temperature for 30 minutes, then 6×10⁴ of the HEK293 T cells suspended in the DMEM medium containing 15% fetal bovine serum (100 μl) were added, and the cells were cultured at 37° C. in a CO₂ incubator for 24 hours.\n(§2) The luciferase activity was compared for the cases of introducing pTac2-VP64 or GUN1-VP64 together with pminCMV-luc2 for a negative control, or the reporter vector having 4 or 8 target sequences (table mentioned below, FIG. 6). The comparison of the activity was performed on the basis of standardized scores obtained by dividing the measured values obtained with Fluc (firefly luciferase) with the measured value obtained with Rluc (Renilla luciferase) as the reference (Fluc/Rluc). […]"}, "[2]": {"biological_target": "T2, GUN1-VP64 (Arabidopsis thaliana, UniProt Q9SIC9 SEQ:234-620)", "T2 chain": "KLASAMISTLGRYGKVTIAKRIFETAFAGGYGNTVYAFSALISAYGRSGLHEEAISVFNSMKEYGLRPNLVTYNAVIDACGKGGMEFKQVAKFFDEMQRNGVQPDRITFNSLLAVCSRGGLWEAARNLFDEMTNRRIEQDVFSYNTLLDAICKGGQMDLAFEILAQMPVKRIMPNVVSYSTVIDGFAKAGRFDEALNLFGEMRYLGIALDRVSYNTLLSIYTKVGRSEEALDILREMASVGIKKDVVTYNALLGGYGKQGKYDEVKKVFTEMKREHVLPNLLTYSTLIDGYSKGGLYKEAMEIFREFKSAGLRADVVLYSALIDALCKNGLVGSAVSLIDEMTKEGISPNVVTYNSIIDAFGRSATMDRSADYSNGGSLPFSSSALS", "test": "cell_activity; HEK293T dual luciferase, 8x target, vs pminCMV-luc2", "description": "as §1, §2"}, "[3]": {"biological_target": "T1, pTac2-VP64", "test": "cell_activity; HEK293T dual luciferase, 4x target, vs pminCMV-luc2", "description": "as §1, §2"}, "[4]": {"biological_target": "T2, GUN1-VP64", "test": "cell_activity; HEK293T dual luciferase, 4x target, vs pminCMV-luc2", "description": "as §1, §2"}},
  "data": [
    {"binder": "B1", "values": [
      {"measurement": "activity", "setting": "[1]", "value": 4.81, "unit": "fold activation"}
    ]},
    {"binder": "B2", "values": [
      {"measurement": "activity", "setting": "[2]", "value": 3.15, "unit": "fold activation"}
    ]},
    {"binder": "B3", "values": [
      {"measurement": "activity", "setting": "[3]", "value": 2.91, "unit": "fold activation"}
    ]},
    {"binder": "B4", "values": [
      {"measurement": "activity", "setting": "[4]", "value": 2.88, "unit": "fold activation"}
    ]}
  ]
}
